Experimental data from the DeepSol protein solubility set.

Test: soluble on expression in E. coli; label from the status in PepcDB or PDB records

Sequence	soluble on expression in E. coli
MMCGGRGTRLDAAAEKPLFEVGGRAMVDHVRAALEAAGRIDTTHAAVSPHAPDTAAHLAATPLSLIETPGDGYVADLTAALDAVGTPVLTVAADLPLLAPAVVDTVVAAADGATTSACVPRALKHELGVSTDADADAWVPTGVNVVGGGDTEATHRSFDARLAVNVNHRSDAAVAARLLAATDRRNHPRLEHHHHHH	not soluble
QSFRAIQLSDLHIGGLIEEHYMEALGERINALKPDMIFLTGDITDASCEQIRTPLEKLKALQAPLGIYFVSGNHEFFHGIQKTMDFLREMGIVVLENDSRTIEGLVNIAGVHDLFGRRIGFLEPDLEQALYGIDPSLPTILLAHQPKFAKEALGYPVDLILSGHTHGGQIAPFGLLVR	not soluble
MVGLADVAVLYSGGKDSNYALYWAIKNRFSVKFLVTMVSENEESYMYHTINANLTDLQARALGIPLVKGFTQGEKEKEVEDLKRVLSGLKIQGIVAGALASKYQRKRIEKVAKELGLEVYTPAWGRDAKEYMRELLNLGFKIMVVGVSAYGLDESWLGRILDESALEELITLNEKYKVHVAGEGGEFETFVLDMPLFKYKIVVDKAKKVWEPCTSSGKLIIEEAHLESKLEHHHHHH	soluble
MGSDKIHHHHHHMEEQREILEQLKKTLQMLTVEPSKNNQIANEEKEKKENENSWCILEHNYEDIAQEFIDFIYKNPTTYHVVSFFAELLDKHNFKYLSEKSNWQDSIGEDGGKFYTIRNGTNLSAFILGKNWRAEKGVGVIGSHVDALTVKLKPVSFKDTAEGYGRIAVAPYGGTLNELWLDRDLGIGGRLLYKKKGTNEIKSALVDSTPLPVCRIPSLAPHFGKPAEGPFDKEDQTIPVIGFPTPDEEGNEPPTDDEKKSPLFGKHCIHLLRYVAKLAGVEVSELIQMDLDLFDVQKGTIGGIGKHFLFAPRLDDRLCSFAAMIALICYAKDVNTEESDLFSTVTLYDNEEIGSLTRQGAKGGLLESVVERSSSAFTKKPVDLHTVWANSIILSADVNHLYNPNFPEVYLKNHFPVPNVGITLSLDPNGHMATDVVGTALVEELARRNGDKVQYFQIKNNSRSGGTIGPSLASQTGARTIDLGIAQLSMHSIRAATGSKDVGLGVKFFNGFFKHWRSVYDEFGEL	not soluble
TRIPGVRLMRAEQAYPRSPVFYEPRICILAQGQKIGFLGGETYRYDAERYLVMSVPLPFECETHASAAEPLLGVSVDVDIGTLKELLLQMEEAPGSDDDNELAPSAPMASVPLDAGMADAVMRLLGCLQSPLDSHILGPQLVREIIFRALRSEQGNAL	not soluble
MSLITVNTLQKMKAAGEKIAMLTAYESSFAALMDDAGVEMLLVGDSLGMAVQGRKSTLPVSLRDMCYHTECVARGAKNAMIVSDLPFGAYQQSKEQAFAAAAELMAAGAHMVKLEGGVWMAETTEFLQMRGIPVCAHIGLTPQSVFAFGGYKVQGRGGKAQALLNDAKAHDDAGAAVVLMECVLAELAKKVTETVSCPTIGIGAGADCDGQVLVMHDMLGIFPGKTAKFVKNFMQGHDSVQAAVRAYVAEVKAKTFPAAEHIFADEGGSHHHHHH	soluble
MKELTNEELRGIQLEQLKYIDRICRENGIEYTLAGGSLIGAIRHGGYIPWDDDIDIELTRPHYDHLISVLMDQLPNEKYALLHYKVRETYLPFAKLYDTRTSFTSKIDNLNRGTGVFLDIFPMDILPDNEEERQVFKKEFLKKAIQLTASNPHGLDFASSSKKIYFWGKLVLWMPQHIRFYGKYRILAEKLDEFMQKYRNSDNQLISYLYTGYKKAIFPKEIWEEYEDVKFEGLTARKLKNHEEYLTRQYGDYMKLEHHHHHH	not soluble
MGSDKIHHHHHHMKYREILEAAVRAPSGENCQPWRFVMEGDVIRIFNIPDQDTSLFNLHQRASYVAHGALLENLSIAAPAFGYAPDISLFPDSHVPNLVAAVRMTEGPSFDDSLYPYIPKRCTNRKRYNGGALSAAESQTLLSVAERVPGGKVALTGSVQDKAEVAEVNALNDRLVFENEHLHAFLFEHVRWSDAEARERGDGLDIKTLELAPPDSLAFPLLKSWPLVDFLKNFGVPRIIAGSARKLALSAAAIGVVSVPGKGDKDCIAAGRLIERVWLEATKLGLSFQLMTGITLLMRRVLDGETENISSQHGELIKKAYGTLANRFGVEDGSLFIMFRVGRCGPPSVYSMRYPIDKVIDAP	not soluble
MSDTTELVDLAVIFPDLEIELKYACADNITGKAIYQQARCLLHKDAITALAKSISIAQLSGLQLVIYDAYRPQQAQAMLWQACPDPQYVVDVTVGSNHSRGTAIDLTLRDEHGNILDMGAGFDEMHERSHAYHPSVPPAAQRNRLLLNAIMTGGGFVGISSEWWHFELPQAASYPLLADQFSCFISPGTQHVS	not soluble
MGSDKIHHHHHHMYKWGWTMTSSVAQLLSTPVEEVAGKEVPVLDKDFSLAEILKAVEKAKIDRAFLTEGNSIRGVLTFRDILDKIATVRTKQAYIGGLHGSSFMNEPVKYVEVGREVSHALETMANGMFTSVPVVGAGGVVEGGITRFELARLVKDLEISQDTSVRDVMRTFLVSVNLQTRILHVRQLLYEYDISVIPVMDEGRFVGVVGLDELMAIIKSFYNLARGEPKRHTPLKYVIVADAIRMRPPVVTPDASLAEAAEKMLEKRYRAVVVVDSEKPVGFTSGLELANFLLTKKSS	not soluble
MGSDKIHHHHHHMRHLKAFYVFHVTAESSNYSKAAEKLHITHGAVSKQIKLLESHLSQMLFYKQGRGMCLTQEGELLKQYTDIAFNALDNGIKKLTRESNKHLEVSCEPTLTMRWLMPRLASFFRLTGIDVRLSTAGGPVDLNETGLSLAIRRDDFDISPEYTAHNLVNEWVGPVFSPEYWRKSQNNLGDIVLLHSETRPSAWSDWSSRSKHTFYTNKSKSFEHFYFCLQAAVDGLGAAIGSYPLIVDDLKSGRLVAPFGFTQSGHKYVLLSHTERLGSNELEFLTWLEKTMSLCQPETP	not soluble
MGSDKIHHHHHHMAAINAAVLQALRTMVRSEFQNALTKTESLYLKIASVVPSNTKSNTYGWLGSMPTMREWIGARVINSIKEHGYSITNRTFETTIGICRDDVEDEVIGTYKPMVQALAQEGEEFPDDLVFELLADGFSTLCYDGQNFFDTDHPVNEKHDGTGDNVSVANMALDAAYTGEPWFLLDTTRPLKPVIFQERRKLDLNTLFNPTDPAVWTNNEFQFGTDMRCEAGFGFWQMAFANKRALNADNLWDTIEKMKAFKRDGGKKLKIRPSLLVVPSSLEQAATKLLTRELIDENGTTVENELKGKVELLVVPQL	not soluble
MNGTLDHPDQPDLDAIKMFVGQVPRTWSEKDLRELFEQYGAVYEINVLRDRSQNPPQSKGCCFVTFYTRKAALEAQNALHNMKVLPGMHHPIQMKPADSEKNNAVEDRKLFIGMISKKCTENDIRVMFSSFGQIEECRILRGPDGLSRGCAFVTFTTRAMAQTAIKAMHQAQTMEGCSSPMVVKFADTQKDKEQKRMAQQLQQQMQQISAASVWGNLAGLNTLGPQYLALLQQTASSGNLNTLSSLHPMGGLNAMQLQNLAALAAAASAAQNTPSGTNALTTSSSPLSVLTSSGSSPSSSSSNSVNPIASLGALQTLAGATAGLNVGSLAGMAALNGGLGSSGLSNGTGSTMEALTQAYSGIQQYAAAALPTLYNQNLLTQQSIGAAGSQKEGPEGANLFIYHLPQEFGDQDLLQMFMPFGNVVSAKVFIDKQTNLSKCFGFVSYDNPVSAQAAIQSMNGFQIGMKRLKVQLKRSKNDSKPY	soluble
MGSDKIHHHHHHMVLALNYNMHGVNIRSENAAKPHTMPSRYLCEYIRSIEKNGHALDFGCGKLRYSDELISKFDEVTFLDSKRQLEREQIIRGIKTKIIDYVPRYYKNANTVAFEDVDKIIGGYDFILCSNVLSAVPCRDTIDKIVLSIKRLLKSGGETLIVNQYKSSYFKKYETGRKHLYGYIYKNSKSVSYYGLLDELAVQEICSSHGLEILKSWSKAGSSYVTVGSCNAI	not soluble
MSLTLKLLAEVAGEKVSRFDNKGDIWYDLISAVHKSIRGSNPDAALYWSARMIAAGCDPLYIARRLLAIASEDVGNADPRAMQVALSAWDCFTRVGPAEGERAIAQAIVYLACAPKSNAVYTAWKQALSDAHNLPEFEVPFHLRNAPTGLMKDLGYGEGYRYAHDEPGAYAAGEQYLPAEIDDRKYYQPTNRGLESKIAEKLDYLANLDANSPQKRYEEGHHHHHH	not soluble
GPGSMEDRNSVASSVFFTGVSLVIEKEKLRQHFESVGHVVSFTIFGPAPGKDFRYGIVGYMDEKTAEEAIRRLDGTTFGERAMRVTAARSTTLHGPLRAGPGGGGSGPADHSTFRKRPREPYPSLNSSRPPYGPGMGRGGGMRAPIARVSFSAQQQQKQEQSQQPTTDKAGRETMQFPRFYTDPILGRDGSLVLDALRGMATEEAYSAVEQLRVLALERPNEAKRLLHNNPALKSAVIMTLQHAGRIPLGSLPRDAYQSRRAAEAEAELAQPLPPQQPTPSQQSALPTPQQTPPQPPAESLKPAKKEARSAAKSGEARGARKRDTATGSASASAAVPSESQTSLVRPSTPMTEAERDEVLELIQSMSEEDVERVLTMSARDFAQVPDPAQRKQLEVLQKRLLVMSRDL	soluble
MGSDKIHHHHHHMKRTVTVKLQPSKAQEETLKELAIISSKAWNKVNYLRRQEFFEGKPVDFLKTEKIVYEEFKSEIGSATVQQICRKNADAWRSFFSLIRSKRNGELPKWFKPKPPEYVKEGGLIILRNDQYKIEGNKLILKGLGKFKRLEVQFKGRIHLKGKQGKLEITYDPIKRKWYAHISYTVKEKLYGGEWVEVPRQPLGNLSAGIDLGVNNLMAVYVENGESFLVNGRPLKSIDFYWRERIADYQSKLNKSGAKKSRKLSRMHEKAKLQAKHYINTAVRQTVERLYHLGVSRIVVGYPKGISRNSNRGKKQNYLLSHVWRFNYVIKRLREVAEEYGIQVLIVDEAFTSKLCPVCGKPHKGQGLFEDYLSVPRRGLPLMPTWLELSTF	not soluble
MRGSHHHHHHGSNSLSEANTKFMFDLFQQFRKSKENNIFYSPISITSALGMVLLGAKDNTAQQIKKVLHFDQVTENTTGKAATYHVDRSGNVHHQFQKLLTEFNKSTDAYELKIANKLFGEKTYLFLQEYLDAIKKFYQTSVESVDFANAPEESRKKINSWVESQTNEKIKNLIPEGNIGSNTTLVLVNAIYFKGQWEKKFNKEDTKEEKFWPNKNTYKSIQMMRQYTSFHFASLEDVQAKVLEIPYKGKDLSMIVLLPNEIDGLQKLEEKLTAEKLMEWTSLQNMRETRVDLHLPRFKVEESYDLKDTLRTMGMVDIFNGDADLSGMTGSRGLVLSGVLHKAFVEVTEEGAEAAAATAVVGFGSSPTSTNEEFHCNHPFLFFIRQNKTNSILFYGRFSSP	soluble
YTDEEWGFLQNQMICDLCEGYAIYRPRYILPDYNVYIQKGCEFLELPPPKDLDEALDGLLILYSHVPSITTYPVYIGRLDVLLEPFITDEEKDYIKIKRFLNHIDKTVPDSFCHANIGPYDTKAGRLILRAVIDLEAPTPNMTIRYDKSKTSREFAELAAKACLLVSKPSFANDAYYISDLGEEYGVASCYNALPECGGAYTLTRLRLGTIARTCKSADEMLNELLPRVAKCALSTMDKRHKFVVEESNFFNSSFLEKEGFIKRTNFTGMFAIVGLADATNHLLQCEGLNETFGKSVRGDEIATAIMDKLKEITDAHEGVYAERTGNRYLLHAQVGASNHEEDKRNAPAHRIRVGEEPTLLAHLKQSAPFHKYFPSGTGDLFAFDQTYVDHCDAVVDIIDGAFSLGYRYITTYLKNTDLIRVTGYLVKKSEVEKYRKGEVALR	not soluble
TKDFTWDLSYNITWNHNEITKLTGGDDSDYYVEAGDKISRGNNTKVQAHKVGYAANSFYVYQQVYDENGKPIENMFVDRNGNGTIDSGDKYIYKKPAGDVLMGLTSKMQYKNFDFSFSLRASLNNYVYYDFLSNKANVSTSGLFSNNAYSNTSAEAVALGLSGQGDYMSDYFIHNASFLRCDNITLGYSFQNLWKTQTYKGVGGRVYATVQNPFIISKYKGLDPEVKSGIDANPYPRAMTFLLGLSLQF	not soluble
